Here are results for three molecules from patent US20240083959A1 (INSTITUTE FOR BASIC SCIENCE, published 2024).

T1: recombinant human LPHN2 lectin-olfactomedin-like domain, residues F26-P394 (human, UniProt O95490 26-394)
T1 construct: range 26-394; Coated on the plate at 100 nM; also called LPHN2 Lec/Olf domains; Lec-Olf domain
T1 sequence (looked up): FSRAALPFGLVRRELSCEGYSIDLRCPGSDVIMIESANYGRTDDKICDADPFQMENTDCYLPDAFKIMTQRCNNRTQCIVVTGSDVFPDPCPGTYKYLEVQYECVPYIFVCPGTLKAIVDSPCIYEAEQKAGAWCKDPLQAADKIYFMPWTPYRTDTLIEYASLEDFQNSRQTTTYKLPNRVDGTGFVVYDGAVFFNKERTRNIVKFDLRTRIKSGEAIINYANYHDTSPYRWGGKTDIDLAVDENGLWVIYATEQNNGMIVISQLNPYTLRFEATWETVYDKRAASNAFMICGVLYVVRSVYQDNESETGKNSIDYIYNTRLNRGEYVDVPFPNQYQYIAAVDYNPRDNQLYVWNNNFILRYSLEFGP

T2: recombinant Lectin-Olfactomedin-like domains of human LPHN1 (human, UniProt O94910 25-398, limits assumed)
T2 construct: domain: Lectin-Olfactomedin-like domains; also called Lec/Olf domains of LPHN1; Lec-Olf domains of LPHN1
T2 sequence (looked up): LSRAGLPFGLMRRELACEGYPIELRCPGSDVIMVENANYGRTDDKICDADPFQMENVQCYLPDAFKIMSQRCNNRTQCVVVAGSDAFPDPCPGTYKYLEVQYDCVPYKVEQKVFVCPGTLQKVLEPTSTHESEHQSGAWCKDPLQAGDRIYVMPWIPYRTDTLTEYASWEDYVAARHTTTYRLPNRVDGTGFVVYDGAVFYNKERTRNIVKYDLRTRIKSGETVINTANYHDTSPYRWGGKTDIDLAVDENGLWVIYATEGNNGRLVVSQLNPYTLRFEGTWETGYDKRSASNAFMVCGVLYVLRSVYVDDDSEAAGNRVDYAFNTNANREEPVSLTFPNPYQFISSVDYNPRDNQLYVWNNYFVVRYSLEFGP

T3: recombinant Lectin-Olfactomedin-like domains of human LPHN3 (human, UniProt Q9HAR2 20-393, limits assumed)
T3 construct: domain: Lectin-Olfactomedin-like domains; also called Lec/Olf domains of LPHN3; Lec-Olf domains of LPHN3
T3 sequence (looked up): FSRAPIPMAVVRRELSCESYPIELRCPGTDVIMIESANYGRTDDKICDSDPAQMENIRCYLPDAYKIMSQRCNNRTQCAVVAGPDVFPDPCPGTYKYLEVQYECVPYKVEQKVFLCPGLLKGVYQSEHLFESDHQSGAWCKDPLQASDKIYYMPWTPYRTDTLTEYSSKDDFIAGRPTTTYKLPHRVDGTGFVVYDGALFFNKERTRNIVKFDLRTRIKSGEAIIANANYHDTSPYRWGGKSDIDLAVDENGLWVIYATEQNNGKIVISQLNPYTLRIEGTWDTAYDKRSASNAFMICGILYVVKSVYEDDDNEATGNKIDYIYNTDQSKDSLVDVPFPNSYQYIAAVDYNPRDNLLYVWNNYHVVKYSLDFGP

B1: recombinant human LPHN2 olfactomedin-like domain, residues V135-P394 (receptor, UniProt O95490 135-394, looked up)
chain: VCPGTLKAIVDSPCIYEAEQKAGAWCKDPLQAADKIYFMPWTPYRTDTLIEYASLEDFQNSRQTTTYKLPNRVDGTGFVVYDGAVFFNKERTRNIVKFDLRTRIKSGEAIINYANYHDTSPYRWGGKTDIDLAVDENGLWVIYATEQNNGMIVISQLNPYTLRFEATWETVYDKRAASNAFMICGVLYVVRSVYQDNESETGKNSIDYIYNTRLNRGEYVDVPFPNQYQYIAAVDYNPRDNQLYVWNNNFILRYSLEFGP
notes: range 135-394; Expressed with an Fc tag and released untagged with thrombin; also called Olf domain of LPHN2
B2: recombinant human LRG1 (leucine-rich alpha-2 glycoprotein 1), residues V36-Q347, untagged, glycosylated (ligand)
chain: VTLSPKDCQVFRSDHGSSISCQPPAEIPGYLPADTVHLAVEFFNLTHLPANLLQGASKLQELHLSSNGLESLSPEFLRPVPQLRVLDLTRNALTGLPPGLFQASATLDTLVLKENQLEVLEVSWLHGLKALGHLDLSGNRLRKLPPGLLANFTLLRTLDLGENQLETLPPDLLRGPLQLERLHLEGNKLQVLGKDLLLPQPDLRYLFLNGNKLARVAAGAFQGLRQLDMLDLSNNSLASVPEGLWASLGQPNWDMRDGFDISGNPWICDQNLSDLYRWLQAQKDKMFSQNDTRCAGPEAVKGQTLLAVAKSQ
modifications: glycosyl groups at T37 (O-linked), N79, N186, N269 and N325 (N-linked), numbered on SEQ ID NO: 1
notes: also called wild-type LRG1; wild LRG1
B3: deglycosylated LRG1 (LRG1 treated with PNGase F) (ligand)
chain: B2 chain
modifications: N-linked glycans removed with PNGase F (sites N79, N186, N269, N325 on SEQ ID NO: 1)
notes: For FACS it was conjugated with Alexa 647; also called DG-LRG1; deglycosylated form

Experiment [1] deals with B2. As to the kind of experiment: solid-phase binding assay (ELISA), plate coated with LPHN2 ectodomain variants. The method, then: (§1) Solid phase binding analysis was performed by a known method (Mol Cancer Ther 14, 470-479 (2015)). LPHN2 extracellular domain variants (Lec, Olf, GAIN/GPS domain; 100 nM) were added to MaxiSorp 96-well plates (Nunc) and incubated at room temperature for 1 hour. The wells were washed twice with PBS and then incubated with 1% bovine serum albumen (BSA) for 2 hours. After blocking, various amounts (0.001, 0.005, 0.01, 0.05, 0.1, 0.5, 1, 5 or 10 μM) of wild-type LRG1 or DG-LRG1 were added to 96-well plates coated with the indicated LPHN2 extracellular domain variants. LRG1 bound to the coated protein was detected by ELISA using an anti-LRG1 antibody (Cat #sc517443, Santa Cruz) and a peroxidase-conjugated anti-mouse secondary antibody (Cat #62-6520, Thermo Fisher Scientific).
On the technique in general: In an ELISA, binding on a coated surface is turned into a signal by an enzyme label.

Experiment [2] concerns the target T1, recombinant human LPHN2 …. The experiment in a line: solid-phase binding assay (ELISA), plate coated with LPHN2 Lec/Olf domains. Here is the method: as §1
Whether or not deglycosylation of LRG1 (DG-LRG1) affects the binding affinity to LPHN2 in vitro (FIG. 7B) and ex vivo (FIGS. 7C and 8C) was determined. […] Cell surface binding rates of LRG1 and DG-LRG1 in HUVEC and HEK293T cells were evaluated and verified again (Table 3, FIGS. 7C and 8C)

The target in experiment [3] is T2, recombinant Lectin-Olfactomedin-like …. The experiment in a line: solid-phase binding assay (ELISA), plate coated with 100 nM Lec-Olf domain. The method, then: (§2) FIG. 8E: results of solid phase binding assay to evaluate binding of wild-type LRG1 and DG-LRG1 to the Lec-Olf domains of LPHN1 and LPHN3. The plates were coated with Lec-Olf domains (100 nM) of LPHN1 and LPHN3. After washing and blocking, different amounts (0.001, 0.005, 0.01, 0.05, 0.1, 0.5, 1, 5 and 10 μM) of wild-type LRG1 or DG-LRG1 were added and LRG1 or DG-LRG1 bound to coated proteins were detected by ELISA using anti-LRG1 antibody and anti-mouse secondary antibody.

Experiment [4] addresses T3, recombinant Lectin-Olfactomedin-like …. The description is as above. Here is the method:
as §2

As to B1, in experiment [1], the binding result is “binds”.

For orientation: Kd means a measure of binding affinity in units of concentration. B2: the Kd in experiment [2] came out at 920 nM. Besides, the binding result in experiment [3] and in experiment [4] was “no binding (tested: 0.001 to 10 µM added)” in each case.

B3: in experiment [2], the dissociation constant Kd was 450 nM. Besides, the binding result in experiment [3] and in experiment [4] was “no binding (tested: 0.001 to 10 µM added)” throughout.
